Laboratory results as given in patent publication US20250145730A1 (SHANGHAI BAO PHARMACEUTICALS, published 2025).

Biological target: T1, human FcRn (human, UniProt P55899 24-297; P61769 21-119)
T1 construct: also called hFcRn
Assay: BLI, acidic conditions, against the wild-type antibody

T1 sequence (P55899 24-297 limits assumed, chain 1 of 2): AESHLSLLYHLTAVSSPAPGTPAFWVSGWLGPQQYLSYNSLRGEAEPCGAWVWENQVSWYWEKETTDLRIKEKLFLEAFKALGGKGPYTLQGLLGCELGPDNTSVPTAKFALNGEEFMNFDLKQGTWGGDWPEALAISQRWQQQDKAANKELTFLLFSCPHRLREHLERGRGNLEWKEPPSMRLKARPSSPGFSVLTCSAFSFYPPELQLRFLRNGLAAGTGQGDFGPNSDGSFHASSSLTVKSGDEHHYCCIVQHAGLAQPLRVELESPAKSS
T1 sequence (P61769 21-119 limits assumed, chain 2 of 2): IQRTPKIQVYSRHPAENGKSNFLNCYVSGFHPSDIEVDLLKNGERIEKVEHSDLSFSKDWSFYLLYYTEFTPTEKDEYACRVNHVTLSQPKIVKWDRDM

B1: Antibody 8 (antibody, human IgG1, kappa)
heavy: not shown
light: DIVMTQSHLSMSTSLGDPVSITCKASQDVSTVVAWYQQKPGQSPRRLIYSASYRYIGVPDRFTGSGAGTDFTFTISSVQAEDLAVYYCQQHYSPPYTFGGGTKLEIKRTVAAPSVFIFPPSDEQLKSGTASVVCLLNNFYPREAKVQWKVDNALQSGNSQESVTEQDSKDSTYSLSSTLTLSKADYEKHKVYACEVTHQGLSSPVTKSFNRGEC
notes: also called antibody 3-Fucose
  fold of the wild-type antibody's affinity: ≤ 3 fold
